Measurements: the Immune Epitope Database (IEDB)

Each sequence was assayed against HLA-A*02:01 (assay: IEDB peptide-MHC binding, purified MHC/competitive/radioactivity; ≥ and ≤ were set here for values at or beyond the usual limits of such assays). Conditions: source organism: Influenza A virus.

| Sequence | IC50 [nM] |
| --- | --- |
| FVEALARSI | 1020 |

Same assay, conditions: source organism: Mammarenavirus brazilense

| Sequence | IC50 [nM] |
| --- | --- |
| GQLFSFFEEV | 33 |
| ALIAVSLIA | 1100 |
| FQLIFFLTL | 353 |
| LTSLGLLYTV | 218 |
| QLIFFLTLA | 122 |
| QLFSFFEEV | 12 |
| TLVDICFWST | 13 |

Same assay, conditions: source organism: Mammarenavirus choriomeningitidis

| Sequence | IC50 [nM] |
| --- | --- |
| NLNQVIQSV | 28 |
| NISGYNFSL | 642 |

Same assay, conditions: source organism: Mammarenavirus juninense

| Sequence | IC50 [nM] |
| --- | --- |
| SLFLHLVGI | 1.5 |
| FQFFVFLAL | 675 |
| FQTVSFSMV | 180 |

Same assay, conditions: source organism: Mammarenavirus machupoense

| Sequence | IC50 [nM] |
| --- | --- |
| ALLPLSLLFL | 4.7 |
| ALVAVSLIA | 3690 |
| NLTEMQEAV | 547 |

Same assay, conditions: source organism: Mammarenavirus whitewaterense

| Sequence | IC50 [nM] |
| --- | --- |
| TLKSFFAWSL | 1340 |
| MIITAVNSL | 2430 |
| FTMEWFLSGL | 70 |
| YVSSIFLHL | 157 |
| FLLRGPFEA | 11 |

Same assay, conditions: source organism: Vaccinia virus WR

| Sequence | IC50 [nM] |
| --- | --- |
| YQYVRLHEM | 9.2 |
| YLKEYIPKA | 1.7 |
| SLNLTIVSV | 26 |
| MTLSCNGET | 1940 |
| FTISMRYQSL | 4300 |
| LMIFISSFLL | 27 |
| SLNRTIVTKV | 67 |
| VMVTITQNV | 37 |
| VIGLCIRISM | 735 |
| VVVPIKFIA | 2840 |
| LLSKNTFYL | 3.1 |
| SMIGLCACV | 2 |
| MLVNRMQRI | 48 |
| LLFILFYFA | 85 |
| LAKAIITPVV | 2360 |
| TVSDYISEL | 128 |
| KMIPLLFIL | 2.9 |
| YMFFVIKNL | 21 |
| IVLFILKIFV | 271 |
| ILMYPTTLL | 7 |
| SIDQKKSYV | 188 |
| ATNIFPFFV | 17 |
| KILSASNRL | 766 |
| KVHGLDVKNV | 1900 |

| Sequence | IC50 [nM] |
| --- | --- |
| LAALFMYYA | 52 |
| YVMTMILFL | 0.065 |
| IMYTYFSNT | 57 |
| ILTAILFFM | 35 |
| KLSSYHVVSV | 16 |
| YLYQPCDLL | 1.8 |
| IIFFIVLILL | 201 |
| SIRFHIKEL | 1560 |
| SIRLELVNLI | 2170 |
| CISQHQHLA | 449 |
| FLLLTSIPI | 0.11 |
| FLSYISDTV | 0.54 |
| PITDSLSFKL | 2660 |
| LQKFSFKIA | 4660 |
| HISIKVKNHI | 280 |
| VLLDYGLHGL | 1.3 |
| YIIRVTTEL | 36 |
| YLDDHRYLFI | 12 |
| MMCYFLTATL | 18 |
| YLPKQPEGV | 1.2 |
| SQYANCSSI | 81 |
| RTLDTAIFT | 3430 |
| KLMIYGLPWM | 11 |
| AIIAIVFVFI | 940 |

| Sequence | IC50 [nM] |
| --- | --- |
| FACLMFKHLL | 1140 |
| KMEYNLYAEL | 297 |
| DIIDFLEGA | 445 |
| FILGIIITV | 0.11 |
| KLVSISNFI | 6.3 |
| NLVKLSSYHV | 1420 |
| YILHSDYQL | 13 |
| YVPGYSITT | 132 |
| HLMFYTLPI | 0.67 |
| YLFNAIETM | 1.5 |
| IVFVFILTA | 294 |
| GLSGDSERV | 626 |
| TIATYIDALA | 125 |
| VMNNLSELTA | 453 |
| LISGSTFSI | 496 |
| CVLPAVVYST | 303 |
| SMITMSAFL | 20 |
| VTINNLKMML | 3060 |
| YIDAYVSRL | 1.9 |
| FLLIRYITT | 46 |
| FMQRIISLSV | 1.8 |
| LTDSLSSQM | 4270 |
| GMLFVNDLMT | 838 |
| LLNLLLWPL | 0.073 |

| Sequence | IC50 [nM] |
| --- | --- |
| CQQKCDMPSL | 2370 |
| SVNIWAIIPL | 1120 |
| LTNVVNIST | 3980 |
| AMFTAALNI | 2.4 |
| MMMMKWIISI | 10 |
| SQEVRKYFCV | 1200 |
| LLSLFSTLV | 12 |
| FLSRLVLYA | 0.075 |
| IMFTCMDPL | 2.1 |
| TIMGVIFLI | 9.6 |
| FLAVLSPTI | 0.66 |
| MLMFIFTGI | 0.38 |
| TLRHIIGLLM | 748 |
| FMFIGSPMYL | 0.093 |
| YMATTILEMV | 1.5 |
| LIAFSSGTV | 1810 |
| FIIEVSNCV | 13 |
| TLYDFDYYII | 5.8 |
| AITDAAVAV | 1480 |
| FICWHSSEI | 53 |
| VLMEAQQGI | 7.1 |
| MMIDDFGTA | 3.2 |
| ELYNKPLYEV | 0.79 |
| FIALWIPDL | 1.7 |

| Sequence | IC50 [nM] |
| --- | --- |
| YLLDRGADI | 8.6 |
| SMMNRDKIPI | 1360 |
| YVTKKNNNI | 505 |
| LLVQRVTSV | 3.1 |
| RLHKECLLRL | 447 |
| FLIDLAFLI | 0.041 |
| YIIDKDTNSV | 30 |
| CVLTTIDGV | 293 |
| YLYALYSPL | 0.13 |
| AMTAFFGEL | 50 |
| FLFYPSMFTL | 0.23 |
| FMASPENVI | 13 |
| YLFRIVSTV | 1.2 |
| MITMSAFLIV | 386 |
| VVCNDLYKV | 174 |
| GLDVKNVQL | 278 |
| TVIHLEWLL | 5.6 |
| KLNGAMVEYV | 6.1 |
| YLVNAIIDSA | 134 |
| LITLTNVVNI | 1060 |
| LTFNFTPKI | 251 |
| PMLYQLLEA | 1070 |
| LIVLFEVFV | 1930 |
| FVNDLMTMNI | 178 |

| Sequence | IC50 [nM] |
| --- | --- |
| VLEYIYGGKT | 1440 |
| ILYAAFLWL | 112 |
| LLDLFGPEV | 6 |
| ALNHLVLSL | 0.45 |
| IMLNGIMYRL | 14 |
| LLSSVDYKNI | 908 |
| NVFKYLTSV | 0.75 |
| IMLEGETKL | 6.7 |
| LLFLVCFPST | 413 |
| IIAIVFVFI | 241 |
| CLVVSTKGDV | 674 |
| AIIDIEPDL | 301 |
| WLLCKLSCA | 151 |
| RVETSPRPT | 1960 |
| HLGYIIRYPV | 12 |
| GLCIRISMV | 216 |
| IVEVPEDGI | 2450 |
| MLNGIMYRL | 0.35 |
| KILAIIFLVL | 383 |
| GLIYSMEFT | 1220 |
| VLITWLIDYV | 0.8 |
| ILDDNLYKV | 1.3 |
| GLNDYLHSV | 1.3 |
| FIKQGFNNLV | 119 |

| Sequence | IC50 [nM] |
| --- | --- |
| FVILYLLAV | 7.8 |
| YLTAIQDFI | 1.9 |
| VLSNTSTAV | 16 |
| YASIINRDI | 2230 |
| LIQEIVHEV | 33 |
| YIDALAKNA | 473 |
| SASVFYRGA | 2050 |
| FQYLLPGFVL | 37 |
| RVFNEYGFV | 190 |
| YLMPYSVYI | 0.26 |
| IIDKDTNSVT | 2800 |
| SLMDMITLSL | 0.59 |
| MVISLLSMI | 155 |
| ALQNVMISI | 440 |
| VLNIVLFIL | 393 |
| SMITMSAFLI | 59 |
| RTLLPILLL | 307 |
| LTNEIYASII | 4330 |
| GLISGSTFSI | 22 |
| EQEFLTAAL | 17 |
| RLYDYFTRV | 11 |
| FVIVIYIFTV | 122 |
| DTVFDYYVL | 54 |
| VIFLISVIVL | 1540 |

| Sequence | IC50 [nM] |
| --- | --- |
| QLEHGSCQPV | 16 |
| SVVIYDFLV | 1.1 |
| GILSNYVKTL | 312 |
| KLGNLLLLI | 0.43 |
| VTLLCVLPAV | 3.8 |
| YQDSDVSQEV | 12 |
| KIFYKHIHKI | 539 |
| LLSLLVIWI | 148 |
| TIIALLFAL | 12 |
| MTPSPFYTVM | 1700 |
| TLFLILCYFI | 21 |
| SLLRKFLYCI | 338 |
| LMGTITLNA | 173 |
| FLSRVFFCV | 0.81 |
| FVCISYYFT | 994 |
| IMVTDTINT | 2360 |
| TLIDDPDNNL | 781 |
| KIFETIYYGA | 604 |
| VVYSTCTVPT | 2320 |
| VLGKVTINNL | 1770 |
| TMVDKPTEL | 185 |
| YIIKNTFNV | 0.54 |
| GLIIISIFL | 72 |
| FVLVDNVDFA | 75 |

| Sequence | IC50 [nM] |
| --- | --- |
| IVLSNTSTAV | 725 |
| NLPSSENYM | 135 |
| IIFGESSIFV | 1.3 |
| SQMTSTFIM | 85 |
| LLSLLVIWIL | 112 |
| QTSVFSATV | 1670 |
| STLIVTIYV | 677 |
| QLYLTVSFI | 3280 |
| LAERFCTEV | 234 |
| STEERHIFL | 2250 |
| KLITSAFDLL | 457 |
| ELKETLLHV | 4330 |
| MLIEVILTA | 5 |
| YTQDELINV | 7.3 |
| RTLLGLILFV | 20 |
| ALMAITKNV | 8.4 |
| VVLDATNDGL | 1450 |
| ALMRRIAVV | 1.8 |
| AALGGSVNI | 1460 |
| FMIEGLMTSL | 0.2 |
| MLFVNDLMT | 747 |
| PLYEVNSTM | 4580 |
| IAMENLKAML | 674 |
| ILMDNKGLGV | 1.3 |

| Sequence | IC50 [nM] |
| --- | --- |
| MVNTVLITV | 121 |
| ELVFIKPPLI | 3300 |
| ILGILYLYET | 73 |
| FIADIGIGV | 0.3 |
| LLNPCLINV | 3.4 |
| FTYYPTNKL | 1730 |
| SMISRHCCI | 986 |
| PLLNIGIVL | 1420 |
| PVNAINDRL | 3460 |
| SLLVIWILIV | 1020 |
| LTDKKTFII | 881 |
| ILYLYETYHL | 9 |
| YVLFTVMTYV | 1 |
| YILCNMALL | 0.38 |
| LLIHFLLSL | 17 |
| YANCSSISI | 901 |
| TAYEINNEL | 925 |
| IQAKTKNFTI | 4230 |
| LIYSMEFTNL | 345 |
| FAVQTIVFI | 96 |
| NLNMTDGDSV | 4320 |
| NLATSIYTI | 1.2 |
| YVLLHLLVV | 101 |
| TLSRHIFMA | 6.2 |
